B1: Azoarcus group I ribozyme (parent)
chain: GUGCCUUGCGCCGGGAAACCACGCAAGGGAUGGUGUCAAAUUCGGCGAAACCUAAGCGCCCGCCCGGGCGUAUGGCAACGCCGAGCCAAGCUUCGGCGCCUGCGCCGAUGAAGGUGUAGAGACUAGACGGCACCCACCUAAGGCAAACGCUAUGGUGAAGGCAUAGUCCAGGGAGUGGCGAAAGUCACACAAACCGG

Variants of: B1
Assay: reverse-splicing fitness (ratio to wild type); higher = more active; in vitro selection; Mg2+ level not given
In short: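 An in vitro group I ribozyme library with randomized positions was T7-transcribed and gel-purified. In triplicate, 10 pmol RNA in EPPS pH 7.5 was reacted with 50 pmoles of a 30-nt RNA substrate for 1 h at 37 °C across several added MgCl2 levels (1–48 mM), then stopped with EDTA. Products were reverse transcribed from a substrate-complementary primer, PCR-amplified and sequenced (HiSeq 4000). Fitness is a variant's read proportion after selection over that before, normalised to wild type.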

Variant | reverse-splicing fitness
C82U A111U A120G A145U C150G C169U U176G | 0.00463
C82U A111U A120G A145U C150G U176A | 0.00538
C82U A111U A120G A145U C150G U176C | 0.00777
C82U A111U A120G A145U C150G U176G | 0.00302
C82U A111U A120G A145U C150U | 0.0114
C82U A111U A120G A145U C150U C169A | 0.00897
C82U A111U A120G A145U C150U C169A U176A | 0.0127
C82U A111U A120G A145U C150U C169A U176C | 0.00959
C82U A111U A120G A145U C150U C169A U176G | 0.00462
C82U A111U A120G A145U C150U C169G | 0.00885
C82U A111U A120G A145U C150U C169G U176A | 0.0119
C82U A111U A120G A145U C150U C169G U176C | 0.0134
C82U A111U A120G A145U C150U C169G U176G | 0.00463
C82U A111U A120G A145U C150U C169U | 0.00788
C82U A111U A120G A145U C150U C169U U176A | 0.0203
C82U A111U A120G A145U C150U C169U U176C | 0.0139
C82U A111U A120G A145U C150U C169U U176G | 0.00432
C82U A111U A120G A145U C150U U176A | 0.00953
C82U A111U A120G A145U C150U U176C | 0.013
C82U A111U A120G A145U C150U U176G | 0.00443
C82U A111U A120G A145U C169A | 0.00696

Variant | reverse-splicing fitness
C82U A111U A120G A145U C169A U176A | 0.0113
C82U A111U A120G A145U C169A U176C | 0.0101
C82U A111U A120G A145U C169A U176G | 0.00391
C82U A111U A120G A145U C169G | 0.00838
C82U A111U A120G A145U C169G U176A | 0.0111
C82U A111U A120G A145U C169G U176C | 0.0121
C82U A111U A120G A145U C169G U176G | 0.00402
C82U A111U A120G A145U C169U | 0.00798
C82U A111U A120G A145U C169U U176A | 0.0203
C82U A111U A120G A145U C169U U176C | 0.0132
C82U A111U A120G A145U C169U U176G | 0.0035
C82U A111U A120G A145U U176A | 0.012
C82U A111U A120G A145U U176C | 0.0131
C82U A111U A120G A145U U176G | 0.0045
C82U A111U A120G C150A | 0.00947
C82U A111U A120G C150A C169A | 0.0103
C82U A111U A120G C150A C169A U176A | 0.0189
C82U A111U A120G C150A C169A U176C | 0.0173
C82U A111U A120G C150A C169A U176G | 0.00561
C82U A111U A120G C150A C169G | 0.0098
C82U A111U A120G C150A C169G U176A | 0.0221

Variant | reverse-splicing fitness
C82U A111U A120G C150A C169G U176C | 0.0213
C82U A111U A120G C150A C169G U176G | 0.00529
C82U A111U A120G C150A C169U | 0.00823
C82U A111U A120G C150A C169U U176A | 0.0209
C82U A111U A120G C150A C169U U176C | 0.0171
C82U A111U A120G C150A C169U U176G | 0.00726
C82U A111U A120G C150A U176A | 0.0114
C82U A111U A120G C150A U176C | 0.0164
C82U A111U A120G C150A U176G | 0.00633
C82U A111U A120G C150G | 0.00696
C82U A111U A120G C150G C169A | 0.00782
C82U A111U A120G C150G C169A U176A | 0.00906
C82U A111U A120G C150G C169A U176C | 0.00855
C82U A111U A120G C150G C169A U176G | 0.00664
C82U A111U A120G C150G C169G | 0.00757
C82U A111U A120G C150G C169G U176A | 0.00605
C82U A111U A120G C150G C169G U176C | 0.00449
C82U A111U A120G C150G C169G U176G | 0.00425
C82U A111U A120G C150G C169U | 0.00755
C82U A111U A120G C150G C169U U176A | 0.0122
C82U A111U A120G C150G C169U U176C | 0.0119

Variant | reverse-splicing fitness
C82U A111U A120G C150G C169U U176G | 0.00556
C82U A111U A120G C150G U176A | 0.00524
C82U A111U A120G C150G U176C | 0.00776
C82U A111U A120G C150G U176G | 0.00288
C82U A111U A120G C150U | 0.0114
C82U A111U A120G C150U C169A | 0.0102
C82U A111U A120G C150U C169A U176A | 0.0156
C82U A111U A120G C150U C169A U176C | 0.0129
C82U A111U A120G C150U C169A U176G | 0.005
C82U A111U A120G C150U C169G | 0.00909
C82U A111U A120G C150U C169G U176A | 0.0146
C82U A111U A120G C150U C169G U176C | 0.0168
C82U A111U A120G C150U C169G U176G | 0.00456
C82U A111U A120G C150U C169U | 0.00882
C82U A111U A120G C150U C169U U176A | 0.0214
C82U A111U A120G C150U C169U U176C | 0.0158
C82U A111U A120G C150U C169U U176G | 0.00647
C82U A111U A120G C150U U176A | 0.0102
C82U A111U A120G C150U U176C | 0.0136
C82U A111U A120G C150U U176G | 0.00537
C82U A111U A120G C169A | 0.00883
